# Reference: US11427643B2, “Targeted protein degradation” (GLAXOSMITHKLINE INTELLECTUAL PROPERTY DEVELOPMENT LIMITED, priority 2017, dated 2022)
# Tests used:
# [1] = tested on: NFAT-luc2 Jurkat cells; assay: Lenalidomide-induced degradation of anti-BCMA CAR constructs transfected in Jurkat cells (flow cytometry, BCMA-Fc staining); assay type: cell-based; settings: 10 μM lenalidomide vs DMSO, 24 hour, FIG. 5
# Method: NFAT-luc2 Jurkat cells (Promega) to a density of 2×10^5 cells/ml were cultured in RPMI medium 1640 (1×) without L-glutamine with phenol red (Gibco), 10% (v/v) Fetal Bovine Serum (FBS) Heat-Inactivated (Gibco), 1% (v/v) Minimum essential medium non-essential amino acids (MEM NEAA) (ThermoFisher), 1% (v/v) Sodium Pyruvate (Sigma), 1% (v/v) L-Glutamine (Gibco). 20 μg of plasmid DNA was mixed with 8×10^6 NFAT-luc2 Jurkat cells and cells were transfected using the 4D-Nucleofector (Lonza) with cell Line SE Nucleofector kit (Lonza) by following manufacturer instructions with program CL-120. Cells were incubated at 37° C. with 5% CO2 for 48 h. Lenalidomide at a stock concentration of 10 mM in 100% DMSO was diluted in Jurkat media to achieve a stock concentration of 250 μM. Using the 250 μM stock, NFAT-luc2 Jurkat cells were incubated at a final compound concentration of 10 μM or 0 μM (DMSO in media) for 24 hour at 37° C. with 5% CO2. Final DMSO concentration was 0.1% in all wells. Cells were then stained with AlexaFluor 647 conjugated BCMA-Fc to label the anti-BCMA CAR. Measurements were made using a Cytoflex S (Beckman Coulter) and data analysed using FlowJo.
# [2] = tested on: primary T-cells co-cultured with ARH-77-10B5 cells; assay: Cytokine release from CAR-transduced primary T-cells co-cultured with BCMA-expressing ARH-77-10B5 cells, with or without lenalidomide (MSD V-plex); assay type: cell-based, human; settings: 10 μM lenalidomide compared with no lenalidomide treatment; after antigen presentation, 24 h co-culture 1:1 with ARH-77-10B5; FIG. 7
# Method: For lentiviral vector production, 3.0×10^7 LentiX 293T (HEK 293T) cells were seeded in 20 mL DMEM (Gibco) and were incubated overnight at 37° C. with 5% CO2. LentiX cells were transfected by mixing, for example, 21 μg of transfer vector containing the construct, 3.75 μg ViraSafe pRSV-Rev, 5.25 μg ViraSafe pCMV-VSVG, 7.5 μg ViraSafe pCgp V-(gag-pol), 75 μg jetPRIME (Polyplus) and […] jetPRIME Buffer (Polyplus). After 2 days, supernatants were clarified and virus was concentrated and purified by ultracentrifugation on a 20% sucrose cushion using Ultrapure sucrose (ThermoFisher) in 50 ml Oak Ridge PPCO ultracentrifugation tubes (ThermoFisher). Lentiviral vectors were produced for CONSTRUCT 4 and CONSTRUCT 5 using the method described above. […]
# 7 days after transduction, lenalidomide at a stock concentration of 10 mM in 100% DMSO was diluted in TEXMacs media to achieve a stock concentration of 250 μM, and 5×10^4 T-cells were incubated at a final compound concentration of 10 μM or 0 μM (DMSO in media) for 16 h at 37° C. with 5% CO2. […] Supernatants were analysed for cytokine levels using MSD V-plex Proinflammatory Panel 1 Human Kit (MSD) and MSD Sector Imager (MSD).
molecule,measurement,setting,value
"CONSTRUCT 4: conventional anti-BCMA CAR: scFv, CD8a hinge and transmembrane, 4-1BB co-stimulatory, CD3 intracellular domains; no degron (control) (protein, Construct 4 Amino Acid Sequence) MALPVTALLLPLALLLHAARPQVQLVQSGAEVKKPGSSVKVSCKGSGYTFTNYWMHWVRQAPGQGLEWIGATYRGHSDTYYNQKFKGRATLTADTSTSTAYMELSSLRSEDTAVYYCTRGAIYDGYDVLDNWGQGTLVTVSSGGGGSGGGGSGGGGSGGGGSDIQMTQSPSSLSASVGDRVTITCSASQDISNYLNWYQQKPGKAPKLLIYYTSNLHSGVPSRFSGSGSGTDFTLTISSLQPEDFATYYCQQYRKLPWTFGQGTKLEIKRFVPVFLPAKPTTTPAPRPPTPAPTIASQPLSLRPEACRPAAGGAVHTRGLDFACDIYIWAPLAGTCGVLLLSLVITLYCNHRNKRGRKKLLYIFKQPFMRPVQTTQEEDGCSCRFPEEEEGGCELRVKFSRSADAPAYQQGQNQLYNELNLGRREEYDVLDKRRGRDPEMGGKPRRKNPQEGLYNELQKDKMAEAYSEIGMKGERRRGKGHDGLYQGLSTATKDTYDALHMQALPPR",expression level of CAR molecules on the surface of Jurkat cells,[1],unaffected
same,"TNFα, IL2 and IFN-γ levels in T-cell supernatants",[2],increased levels of cytokines concentrations
